Assay results: the supplement of paper PMC7125110
± gives the standard error. This sample holds only a part of the variants without activity.

B1: glmS ribozyme (parent)
chain: AUAAAAGCGCCAGAACUACAGAAAUGUAGUUGACGAGGAGGAGGUUUAUCGAAUUUUCGGCGGAUGCCUCCAAA

What was measured:
Conditions in all cases: with glucosamine-6-phosphate
[1] = variants of: B1; experiment: self-cleavage kobs at 40 uM GlcN6P; higher = faster cleavage; RNA array
In short: (§1)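 kobs was derived by fitting per-tile medians to one- or two-exponential decays after normalising signals to baseline and to non-cleaving reference variants. Those signals came from barcoded ribozyme variants transcribed in situ by E. coli RNA polymerase on sequenced MiSeq chips, followed through a hybridised Cy3 probe at 37 °C and imaged over ~14 h. Glucosamine-6-phosphate (40 μM to 10 mM) in HEPES/KCl/Mg(OAc)2 buffer was flowed in. Weighted Michaelis–Menten fits across concentrations then gave kcat and KM.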

[2] = variants of: B1; experiment: self-cleavage kobs at 2500 uM GlcN6P; higher = faster cleavage; RNA array
In short: as §1

[3] = variants of: B1; experiment: self-cleavage kobs at 160 uM GlcN6P; higher = faster cleavage; RNA array
In short: as §1

[4] = variants of: B1; experiment: self-cleavage kobs at 640 uM GlcN6P; higher = faster cleavage; RNA array
In short: as §1

[5] = variants of: B1; experiment: self-cleavage kobs at 10000 uM GlcN6P; higher = faster cleavage; RNA array
In short: as §1

| Variant | self-cleavage kobs at 40 uM GlcN6P [1] | self-cleavage kobs at 2500 uM GlcN6P [2] | self-cleavage kobs at 160 uM GlcN6P [3] | self-cleavage kobs at 640 uM GlcN6P [4] | self-cleavage kobs at 10000 uM GlcN6P [5] |
| --- | --- | --- | --- | --- | --- |
| AUAAAAGCGCAAGAACUACAGAAAUGUAGUUGAAGAGGAGGAGGUUGAUCGAAUUUUCGGCGGAUGCCUCCAAA [C11A C34A U47G] | < 1e-05 s⁻¹ | < 1e-05 s⁻¹ |  |  |  |
| AUAAAAGCGCAAGAACUACAGAAAUGUAGUUGACGAGGAGGAGGUUUAUGGAAUUUUCGGCGGAUGCCUCCAAA [C11A C50G] | 5.74e-05 ± 1.4e-05 s⁻¹ | 9.24e-05 ± 1.4e-05 s⁻¹ | 0.000276 ± 7.2e-05 s⁻¹ | 0.000195 ± 4e-05 s⁻¹ | 8.61e-05 ± 1.6e-05 s⁻¹ |
| AUAAAAGCGCAAGAACUACAGAAAUGUAGUUGACGUGGAGGAGGUUUAUCGAAUUUUCGGCCGAUGCCUCGAAA [C11A A36U G62C C71G] | < 1e-05 s⁻¹ |  | < 1e-05 s⁻¹ |  | < 1e-05 s⁻¹ |
| AUAAAAGCGCAAGAACUACAGAAAUGUAUUUGACGAGGAGGAGGUUUAUCGAAUUUUCUGCGGAUGCCUCCAAA [C11A G29U G59U] | 0.000103 ± 2.9e-05 s⁻¹ |  |  |  |  |
| AUAAAAGCGCAAGAACUACAGAAAUGUAGUUGACGAGGAGGAGGUUUAUCGAAUUUUCGGCGGAUGCCUUGAAA [C11A C70U C71G] | 4.85e-05 ± 1.9e-05 s⁻¹ |  |  |  | 3.22e-05 ± 1.6e-05 s⁻¹ |
| AUAAAAGCGCAAGAACUACAGAAAUGUAGUUGACGAGGAGGAGGUUUAUCGAAUUUUCGGCGGAUGCCUGCAAA [C11A C70G] | 2.86e-05 ± 1.2e-05 s⁻¹ | 5.3e-05 ± 1.3e-05 s⁻¹ | 4.84e-05 ± 2e-05 s⁻¹ | 0.00013 ± 2.5e-05 s⁻¹ | 3.06e-05 ± 1.1e-05 s⁻¹ |
| AUAAAAGCGCAAGAACUACAGAAAUGUAGUUGACGAGGAGCAGGUUUAUCGAAUUUUCGGCGGAUGCCUCCAAA [C11A G41C] | < 1e-05 s⁻¹ | < 1e-05 s⁻¹ | < 1e-05 s⁻¹ | < 1e-05 s⁻¹ |  |
| AUAAAAGCGUCAGAACUACAGAAAUGUAGUUGACGAGGAGGAGGUUUAUCGAAUUUUCGCCGGAUGCCUCCAAA [C10U G60C] | < 1e-05 s⁻¹ | < 1e-05 s⁻¹ | < 1e-05 s⁻¹ | < 1e-05 s⁻¹ | < 1e-05 s⁻¹ |
| AUAAAAGCGUCAGAACUACAGAAAUGUAGUUGACGAGGAGGAGUUUUAUCGAAUUUUCGGCGGAUGCCUCCAAA [C10U G44U] | < 1e-05 s⁻¹ | < 1e-05 s⁻¹ |  | < 1e-05 s⁻¹ | < 1e-05 s⁻¹ |
| AUAAAAGCGCAAGAACUACAGAAAUGUAGUUGACGACGAGGAGGUUUAUCGAAUUUUCGACGGAUGCCUCCAAA [C11A G37C G60A] | < 1e-05 s⁻¹ |  |  |  |  |
| AUAAAAGCGCAAGACCUACAGAAAUGUAGUUGACGAGGAGGAAGUUUAUCGAAUUUUCGGCGGAUGCCUCCAAA [C11A A15C G43A] | < 1e-05 s⁻¹ |  |  |  | < 1e-05 s⁻¹ |
| AUAAAAGCGUCAGAACUACAGAAAUGUAGUUGACGAGGAGGACGUUUAUCGAAUUUUCGGCGGAUGCCUCCAAA [C10U G43C] | < 1e-05 s⁻¹ | < 1e-05 s⁻¹ | < 1e-05 s⁻¹ | < 1e-05 s⁻¹ | < 1e-05 s⁻¹ |
| AUAAAAGCGCAAGAACUACAGAAAUGUAGUUGACGAGGAGGAGGUUUAUCGAAUUUUCGGUGGAUGCCUUCAAA [C11A C61U C70U] | < 1e-05 s⁻¹ |  |  |  | < 1e-05 s⁻¹ |
| AUAAAAGCGUCAGAACUACAGAAAUGUAGUCCACGAGGAGGAGGUUUAACUAAUUUUCGCCGGAUGCCUCCAAA [C10U U31C G32C U49A G51U G60C] | < 1e-05 s⁻¹ |  |  |  |  |
| AUAAAAGCGCACGAACUACAGAAAUGUAGUUGACGAGGAGGAGGUUUAUCGAAUUUUCGGCGGCUGCCUCCAAA [C11A A12C A64C] | < 1e-05 s⁻¹ | < 1e-05 s⁻¹ |  |  | < 1e-05 s⁻¹ |
| AUAAAAGCGUCAGAACUACAGAAAUGUAGUUGACGAGGAGGAGGCUUAUCGAAUUUUCGGCGAAUGCCUCCAAA [C10U U45C G63A] | < 1e-05 s⁻¹ |  | < 1e-05 s⁻¹ | < 1e-05 s⁻¹ |  |
| AUAAAAGCGCAAGAACUACAGAAAUGUAGUUGACGAUGAGGUGGUUUAUCGAAUUUUCGGCGGAUGCUUCCAAA [C11A G37U A42U C68U] | < 1e-05 s⁻¹ |  |  | < 1e-05 s⁻¹ |  |
| AUAAAAGCGCAAGAACUACAGAAAUGUAGUUUACGAGGAGGGGGUUUAUCGAAUUUUCGGCGGAUGCCUCCAAA [C11A G32U A42G] | < 1e-05 s⁻¹ |  |  |  |  |

| Variant | self-cleavage kobs at 40 uM GlcN6P [1] | self-cleavage kobs at 2500 uM GlcN6P [2] | self-cleavage kobs at 160 uM GlcN6P [3] | self-cleavage kobs at 640 uM GlcN6P [4] | self-cleavage kobs at 10000 uM GlcN6P [5] |
| --- | --- | --- | --- | --- | --- |
| AUAAAAGCGCAAGAACUACAGAAAUGUAGUUGUCGAGGAGGAGGUUUAUCGAAAUUUCGGCGGAUGCCUCCAAA [C11A A33U U54A] | < 1e-05 s⁻¹ |  |  |  |  |
| AUAAAAGCGCAAGAACUACAGAAAUGUAUUUUACGAGGAGGAGAUUUAUCGAAUUUUCGGCGGAUGCCUCCAAA [C11A G29U G32U G44A] | < 1e-05 s⁻¹ |  |  |  |  |
| AUAAAAGCGCAAGAACUACAGAAAUGUAGUUGACGAGAAGGAGCUUUAUCGAAUUUUCGGCGGAUGCCUCCAAA [C11A G38A G44C] | < 1e-05 s⁻¹ |  |  |  | < 1e-05 s⁻¹ |
| AUAAAAGCGUCAGAACUACAGAAAUGUAGUUGACGAGGAGGAGGUUAAUCGAAUUUUCGGCUGUUGCCACCAAA [C10U U47A G62U A64U U69A] | < 1e-05 s⁻¹ |  |  |  |  |
| AUAAAAGCGCAAGAACUACAGAAAUGUAGUUGACGAGGACGAGGUUUAUCGAAAUUUCGGCGGAUGCCUCCAAA [C11A G40C U54A] | < 1e-05 s⁻¹ |  |  |  |  |
| AUAAAAGCGCAAGAGCUACAGAAAUGUAGUUGACGAGGAGGAGGUUUAUCGAAUUUUGGGCGGAUGCAUCCAAA [C11A A15G C58G C68A] | 8.59e-05 ± 2.2e-05 s⁻¹ |  |  |  | 0.000145 ± 2.6e-05 s⁻¹ |
| AUAAAAGCGUCAGAACUACAGAAAUGUAGUUGACGAGGAGGAGGUUUAUCGAAUUUUCGGCGUUUGCCUCCAAA [C10U G63U A64U] | < 1e-05 s⁻¹ |  |  |  |  |
| AUAAAAGCGCAAGAAGUACAGAAAUGUAGUUGACGUGGAAGAGGUUUAUCGAAUAAUCGGCGGAUGCCUCCAAA [C11A C16G A36U G40A U55A U56A] | < 1e-05 s⁻¹ |  |  |  | < 1e-05 s⁻¹ |
| AUAAAAGCGUCAGAACUACAGAAAUGUAGUUGACGAGGAGGAGGUGUAUCGAAUUUUCGGCGGAUGCCUCCAAA [C10U U46G] | < 1e-05 s⁻¹ |  | < 1e-05 s⁻¹ |  |  |
| AUAAAAGCGCAAGAACUACAGAAAUGUAGUUGACGAGGAGGAGGUUUAUCGAAUUUUAGGCGGGUGCCUCCAAA [C11A C58A A64G] | < 1e-05 s⁻¹ |  |  |  |  |
| AUAAAAGCGCAAGAACUACAGAAAUGUAUUUGACGAGGAGGAGGUUUAUCGAAUUUUCGGCGGAUGGGUCCAAA [C11A G29U C67G C68G] | 3.88e-05 ± 1.7e-05 s⁻¹ |  |  |  |  |
| AUAAAAGCGCAAGAACUACAGAAAUGUAGUUGACGAGUAGGAGGUUUAUCGAAUUUUCGGCGGAUGGUUCCAAA [C11A G38U C67G C68U] | 0.000296 ± 7.3e-05 s⁻¹ |  |  |  | 0.000394 ± 9.3e-05 s⁻¹ |
| AUAAAAGCGCAAGAACUACAGAAAUGUAGUUGACGAGGAGGAGGUUUAUGGAAUUUUCGGCUGAUGCCUCCAAA [C11A C50G G62U] | 0.000115 ± 2.8e-05 s⁻¹ |  |  |  | 0.000116 ± 2.6e-05 s⁻¹ |
| AUAAAAGCGCAACAACUACAGAAAUGUAGUUGACGAGGAGGAGGUUUAUCGAUUUUUGGGCGGUUGCCACCAAA [C11A G13C A53U C58G A64U U69A] | 7.02e-05 ± 2.7e-05 s⁻¹ |  |  |  |  |
| AUAAAAGCGCAAGAACUACAGAAAUGUAGUUGACCAGGAGGAGGUUUAUCGAAUUUUCGGCGGAUGCCUCCAAA [C11A G35C] | < 1e-05 s⁻¹ | < 1e-05 s⁻¹ | < 1e-05 s⁻¹ | < 1e-05 s⁻¹ |  |
| AUAAAAGCGUCAGAACUACAGAAAUGUAGUUGACGAGGAGGAAGUUUAUCGAAUUUUCGGCGGAUGCCUGCAAA [C10U G43A C70G] | < 1e-05 s⁻¹ |  |  |  |  |
| AUAAAAGCGCAAGCACUACAGAAAUGUAGUUGACGAGGAGGAGGUUUAUCGAAUUUUCGGCGCAUGCCCCCAAA [C11A A14C G63C U69C] | < 1e-05 s⁻¹ |  |  |  |  |
